Data on three molecules can be found in publication PMC7235295, “Cytoplasmic TDP43 Binds microRNAs: New Disease Targets in Amyotrophic Lateral Sclerosis”.

In this data set the target is TDP43 (natively folded full-length, ab224788) (UniProt Q13148 1-414). The data set is described as follows: ELISA (immobilized miRNA titration, EC50); 5 nM TDP43; AC/TG nonspecific oligo 1 ug/ml; EMSA: 14 mM Tris pH 8.0, 35 mM KCl, 14 mM NaCl, 1.4 mM MgCl2, 14% glycerol, 0.7 mM DTT, 30 min RT, 5 nM RNA, gel at 4 C; ELISA: 20 mM HEPES pH 7.5, 150 mM NaCl, 1.5 mM MgCl2, 0.05% Tween 20, 0.5 mM DTT, 1 ug/ml AC/TG oligo, 0.2% BSA, 12 h 4 C. As to conditions: protein: commercial; label: 3'-biotin; single strand. For orientation: ELISA stands for enzyme-linked immunosorbent assay.
Sequence of TDP43 (natively folded full-length, ab224788) (Q13148 whole entry): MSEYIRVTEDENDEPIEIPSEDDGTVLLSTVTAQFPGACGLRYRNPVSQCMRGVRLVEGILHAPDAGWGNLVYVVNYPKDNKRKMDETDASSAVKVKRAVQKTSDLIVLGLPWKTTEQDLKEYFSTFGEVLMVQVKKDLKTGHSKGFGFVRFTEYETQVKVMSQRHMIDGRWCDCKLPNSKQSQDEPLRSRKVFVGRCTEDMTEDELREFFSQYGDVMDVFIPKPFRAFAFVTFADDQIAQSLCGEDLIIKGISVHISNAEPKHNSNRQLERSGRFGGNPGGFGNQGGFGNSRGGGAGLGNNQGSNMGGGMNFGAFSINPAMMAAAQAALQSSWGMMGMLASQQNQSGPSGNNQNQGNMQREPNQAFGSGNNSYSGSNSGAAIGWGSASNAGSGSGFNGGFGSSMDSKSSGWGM
Turning to AAUGGCGCCACUAGGGUUGUG (ssRNA) [miR-652-3p], the “apparent K (half saturation)” value was 6.41 nM.

As to UGAGUGUGUGUGUGUGAGUGUGU (ssRNA) [miR-574-5p (ELISA)], the “apparent K (half saturation)” value turned out to be 2.84 nM.

Turning to UUCCCUUUGUCAUCCUAUGCCU (ssRNA) [miR-204-5p], the “apparent K (half saturation)” value was 37.7 nM.
